Key:
human NKp30 (human) [1] = biological target: human NKp30 (human) (UniProt O14931); assay: BLI, immunoligand on anti-hFc tip
[2] = biological target: NKp30 on human NK cells (human) (UniProt O14931); assay: cell-based or functional assay
human NKp30 (human) [3] = biological target: human NKp30 (human) (UniProt O14931); assay: BLI, ratio to ΔB7-H6_wt

Sequence of human NKp30 (human) (O14931 19-135 limits assumed): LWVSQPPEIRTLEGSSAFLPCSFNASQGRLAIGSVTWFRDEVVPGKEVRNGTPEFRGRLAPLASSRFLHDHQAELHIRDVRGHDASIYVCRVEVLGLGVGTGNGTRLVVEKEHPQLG
Sequence of NKp30 on human NK cells (human) (O14931 19-201): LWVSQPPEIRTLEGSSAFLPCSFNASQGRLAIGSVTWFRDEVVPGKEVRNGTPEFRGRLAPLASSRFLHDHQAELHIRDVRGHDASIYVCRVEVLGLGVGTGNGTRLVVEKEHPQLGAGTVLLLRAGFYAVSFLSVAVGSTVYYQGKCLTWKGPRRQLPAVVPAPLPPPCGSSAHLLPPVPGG

Binder	Kd (human NKp30 (human) [1]) [nM]	koff (human NKp30 (human) [1]) [s⁻¹]	kon (human NKp30 (human) [1]) [M⁻¹ s⁻¹]	A431 EC50 with NK cells (pM) [2] [pM]	A431 EC50 with PBMC (pM) [2] [pM]	A549 EC50 with NK cells (pM) [2] [pM]	A549 EC50 with PBMC (pM) [2] [pM]	EC50 (pM), A431 lysis with PBMC [2] [pM]	EC50 improvement compared to ΔB7-H6 wt [2] [fold]	increase in potency with purified NK cells on A431 compared to wild-type [2] [fold]	KD improvement compared to ΔB7-H6 wt (human NKp30 (human) [3]) [fold]	x-fold KD improvement (human NKp30 (human) [3]) [fold]	x-fold Koff improvement (human NKp30 (human) [3]) [fold]	EC50 of A431 lysis with PBMC, initial screening [2] [nM]
ΔB7-H6_S2#4-SEED-PGLALA (bispecific antibody, part only; not given: SEED Fc chains and hu225 Fab, part only) chain, part: DLKVEMMAGGTQITPLNDNVTIFCNIFYSQPLNITHMGITWFWKSLTFDKEVKVFEFYADHQEAIRPGAIVSPWRLKSGDASLRLPGIQLEEAGEYRCEVVVTPYKAQGTVQLEVVASPAS	147	0.122	830000	–	–	–	–	–	–	–	–	–	–	–
ΔB7-H6_S3#15-SEED-PGLALA (bispecific antibody, part only; not given: SEED Fc chains and hu225 Fab, part only) chain, part: DLKVEMMAGGTQITPLNDNVTIFCNIFYSQPLNITIMGITWFWKSLTFDKEVKVFEFWGDHQEAFRPGAIVSPWRLKSGDASLRLPGIQLEEAGEYRCEVVVTPYKAQGTVQLEVVASPAS	12.4	0.0101	817000	2.8	29.9	31.3	133	8.7	100	87	33	33	16.6	–
ΔB7-H6_S2#13-SEED-PGLALA (bispecific antibody, part only; not given: SEED Fc chains and hu225 Fab, part only) chain, part: DLKVEMMAGGTQITPLNDNVTIFCNIFYSQPLNITSMGITWFWKSLTFDKEVKVFEFWGDHQEAFRPGAIVSPWRLKSGDASLRLPGIQLEEAGEYRCEVVVTPYKAQGTVQLEVVASPAS	205	0.0842	410000	–	–	–	–	171	5	–	2	2	2	–
ΔB7-H6_S2#14-SEED-PGLALA (bispecific antibody, part only; not given: SEED Fc chains and hu225 Fab, part only) chain, part: DLKVEMMAGGTQITPLNDNVTIFCNIFYSQPLNITTMGITWFWKSLTFDKEVKVFEFFGDHQEAFRPGAIVSPWRLKSGDASLRLPGIQLEEAGEYRCEVVVTPYKAQGTVQLEVVASPAS	217	0.124	570000	–	–	–	–	158	5	–	1.9	1.9	1.4	–
ΔB7-H6_S2#12-SEED-PGLALA (bispecific antibody, part only; not given: SEED Fc chains and hu225 Fab, part only) chain, part: DLKVEMMAGGTQITPLNDNVTIFCNIFYSQPLNITHMGITWLWKSLTFDKEVKVFEFYGDHQEAFRPGAIVSPWRLKSGDASLRLPGIQLEEAGEYRCEVVVTPLKAQGTVQLEVVASPAS	291	0.162	556000	–	–	–	–	–	–	–	–	–	–	–
ΔB7-H6_wt-SEED-PGLALA (bispecific antibody, part only; not given: SEED Fc chains and hu225 Fab, part only) chain, part: DLKVEMMAGGTQITPLNDNVTIFCNIFYSQPLNITSMGITWFWKSLTFDKEVKVFEFFGDHQEAFRPGAIVSPWRLKSGDASLRLPGIQLEEAGEYRCEVVVTPLKAQGTVQLEVVASPAS	409	0.168	412000	245	1840	–	–	868	1	–	1	–	–	1.1
ΔB7-H6_S2#6-SEED-PGLALA (bispecific antibody, part only; not given: SEED Fc chains and hu225 EGFR Fab, part only) chain, part: DLKVEMMAGGTQITPLNDNVTIFCNIFYFQPLNITEMGITWFWKSLTFDKEVKVFEFFGDHQEAFRPGAIVSPWRLKSGDASLRLPGIQLEEAGEYRCEVIVTPLKAQGTVQLEVVASPAS	285	0.376	1.32e+06	–	–	–	–	–	–	–	–	–	–	–
ΔB7-H6_S2#5-SEED-PGLALA (bispecific antibody, part only; not given: SEED Fc chains and hu225 Fab, part only) chain, part: DLKVEMMAGGTQITPLNDNVTIFCNIFYSQPLNITSMGITWLWKSLTFDKEVKVFEFWGDHQEAFRPGAIVSPWRLKSGDASLRLPGIQLEEAGEYRCEVFVTPYKAQGTVQLEVVASPAS	253	0.148	585000	–	–	–	–	–	–	–	–	–	–	–
ΔB7-H6_S3#18-SEED-PGLALA (bispecific antibody, part only; not given: SEED Fc chains and hu225 Fab, part only) chain, part: DLKVEMMAGGTQITPLNDNVTIFCNIFYSQPLNITYMGITWFWKSLTFDKEVKVFEFWGDHQEAFRPGAIVSPWRLKSGDASLRLPGIQLEEAGEYRCEVVVTPYKAQGTVQLEVVASPAS	9.06	0.0136	1.5e+06	4.31	51.1	42.5	132	19.8	44	–	45.1	45.1	12.4	–
ΔB7-H6_S2#10-SEED-PGLALA (bispecific antibody, part only; not given: SEED Fc chains and hu225 EGFR Fab, part only) chain, part: DLKVEMMAGGTQITPLNDNVTIFCNIFYSQPLNITLMGITWFWKSLTFDKEVKVFEFWGDHQEAFRPGAIVSPWGLKSGDASLRLPGIQLEEAGEYRCEVVVTPLKAQGTVQLEVVASPAS	187	0.111	597000	–	–	–	–	122	7	–	2.2	2.2	1.5	–
